Tests used:
Format in all cases: cell-based
[1] = tested on: Porcine embryonic fibroblast (PEF); experiment: Cell cycle distribution (propidium iodide flow cytometry) of serum starved porcine embryonic fibroblasts; settings: for Proportion of cells going into G0, in words: addition during the starvation period; for G0/G1 (%) / G2/M (%) / S (%): serum starvation 5 days, MAC 0.7 pM, NAC 1 mM, GSH 2 mM
Excerpt: (§1) Porcine embryonic fibroblast (PEF) were isolated from day 25-28 fetuses according to the methods previously described (Hogan et al., 1994). Briefly, porcine fetuses of day 25-30 (day 0=estrus) were removed from the uterus and rinsed with PBS+penicillin/streptomycin solution (PBS/PS). Head, limbs and internal organs were removed, and the carcasses were minced with razor blades or ground using a syringe head until they were the consistency of sludge. Then these were trypsinized 2-3 times using 0.25% trypsin+EDTA for 20 minutes. The supernatant fraction was removed and centrifuged to collect the cells. The cells were plated using DMEM+10% fetal bovine serum (FBS) and cultured up to 80-90% confluency before further passage.
(§2) Bovine embryonic fibroblasts (BEF) were isolated from the fetus with 3-5 cm crown-rump length. After two or three passages, cells were plated one million cells per plate (100 mm) with growth medium (DMEM) with 2 mM L-glutamine, 0.1 mM β-mercaptoethanol and 10% FBS. After 24 hours, cells were washed with PBS 3-5 times and then serum starvation medium with 0.5% FBS was added. In addition, cells were treated with serum starvation medium containing apoptosis inhibitors such as a2-macroglobulin (0.7 pM), N-acetylcysteine (1 mM) and glutathione (2 mM). Cells were treated with serum starvation with or without apoptosis inhibitors for 5 or 10 days. Then cells were trypsinized and counted.
Cells (1×10^6) were washed in 0.15 M NaCI, fixed in 70% ethanol, and stored at −20° C. overnight or until ready to be analyzed. For analysis, cells were centrifuged, rinsed with PBS, resuspended in 500 μl of a 0.05 mg/ml propidium iodide/0.1% Triton X-100/0.2 mg/ml RNase A solution, and incubated for a minimum of 30 minutes at room temperature in the dark. Cells were analyzed by flow cytometry to determine DNA content. Modfit LT™ (Verity Software House, Topsham, Me.) was used to model the cell cycle distribution within each sample.

[2] = tested on: Porcine embryonic fibroblast (PEF); experiment: TUNEL assay (flow cytometry) of serum starved porcine embryonic fibroblasts; settings: serum starvation 5 days, MAC 0.7 pM, NAC 1 mM, GSH 2 mM, serum starved without inhibitor 26.50
Excerpt: as §1, §2
After counting, cells were fixed and stained according to protocols with the APO-BRDU kit (Phoenix Flow Systems, San Diego, Calif.). […] To determine base line fluorescence, control cells were incubated without TdT. […] Following counterstaining with a propidium iodide/RNase A solution for 30 minutes in the dark, which allows simultaneous analysis of cell cycle position and apoptosis, cells were analyzed on a FACSCalibur™ flow cytometer (Becton Dickinson, San Jose, Calif.). Fluorescence emissions were measured at 582±21 nm for propidium iodide and 530±15 nm for fluorescein, without spectral compensation, after excitation at 488 nm by an argon-ion laser. […]

porcine PGCs = experiment: In vitro culture of porcine PGCs on STO feeder cells with apoptosis inhibitors; AP-stained colonies counted
[3] = Table 3 combined effects study: MAC 0.7 pM, NAC 1.0 mM, alone or together, normalized to control

## CC(=O)N[C@@H](CS)C(=O)O [NAC, N-acetylcysteine]
[1]
  Proportion of cells going into G0, in words: did not affect the proportion of cells going into G0
  G0/G1 (%): 95%
  G2/M (%): 3%
  S (%): 2%
[2]
  5-day Apoptosis (%): 0.06%
Porcine PGCs; [3]
  Normalized # of Colonies + SE: 2.73 ± 0.03

B1: α2-macroglobulin (protein, UniProt P01023 24-1474, looked up)
Alpha-2-macroglobulin: SVSGKPQYMVLVPSLLHTETTEKGCVLLSYLNETVTVSASLESVRGNRSLFTDLEAENDVLHCVAFAVPKSSSNEEVMFLTVQVKGPTQEFKKRTTVMVKNEDSLVFVQTDKSIYKPGQTVKFRVVSMDENFHPLNELIPLVYIQDPKGNRIAQWQSFQLEGGLKQFSFPLSSEPFQGSYKVVVQKKSGGRTEHPFTVEEFVLPKFEVQVTVPKIITILEEEMNVSVCGLYTYGKPVPGHVTVSICRKYSDASDCHGEDSQAFCEKFSGQLNSHGCFYQQVKTKVFQLKRKEYEMKLHTEAQIQEEGTVVELTGRQSSEITRTITKLSFVKVDSHFRQGIPFFGQVRLVDGKGVPIPNKVIFIRGNEANYYSNATTDEHGLVQFSINTTNVMGTSLTVRVNYKDRSPCYGYQWVSEEHEEAHHTAYLVFSPSKSFVHLEPMSHELPCGHTQTVQAHYILNGGTLLGLKKLSFYYLIMAKGGIVRTGTHGLLVKQEDMKGHFSISIPVKSDIAPVARLLIYAVLPTGDVIGDSAKYDVENCLANKVDLSFSPSQSLPASHAHLRVTAAPQSVCALRAVDQSVLLMKPDAELSASSVYNLLPEKDLTGFPGPLNDQDNEDCINRHNVYINGITYTPVSSTNEKDMYSFLEDMGLKAFTNSKIRKPKMCPQLQQYEMHGPEGLRVGFYESDVMGRGHARLVHVEEPHTETVRKYFPETWIWDLVVVNSAGVAEVGVTVPDTITEWKAGAFCLSEDAGLGISSTASLRAFQPFFVELTMPYSVIRGEAFTLKATVLNYLPKCIRVSVQLEASPAFLAVPVEKEQAPHCICANGRQTVSWAVTPKSLGNVNFTVSAEALESQELCGTEVPSVPEHGRKDTVIKPLLVEPEGLEKETTFNSLLCPSGGEVSEELSLKLPPNVVEESARASVSVLGDILGSAMQNTQNLLQMPYGCGEQNMVLFAPNIYVLDYLNETQQLTPEIKSKAIGYLNTGYQRQLNYKHYDGSYSTFGERYGRNQGNTWLTAFVLKTFAQARAYIFIDEAHITQALIWLSQRQKDNGCFRSSGSLLNNAIKGGVEDEVTLSAYITIALLEIPLTVTHPVVRNALFCLESAWKTAQEGDHGSHVYTKALLAYAFALAGNQDKRKEVLKSLNEEAVKKDNSVHWERPQKPKAPVGHFYEPQAPSAEVEMTSYVLLAYLTAQPAPTSEDLTSATNIVKWITKQQNAQGGFSSTQDTVVALHALSKYGAATFTRTGKAAQVTIQSSGTFSSKFQVDNNNRLLLQQVSLPELPGEYSMKVTGEGCVYLQTSLKYNILPEKEEFPFALGVQTLPQTCDEPKAHTSFQISLSVSYTGSRSASNMAIVDVKMVSGFIPLKPTVKMLERSNHVSRTEVSSNHVLIYLDKVSNQTLSLFFTVLQDVPVRDLKPAIVKVYDYYETDEFAIAEYNAPCSKDLGNA
[1]
  Proportion of cells going into G0, in words: did not affect the proportion of cells going into G0
  G0/G1 (%): 95%
  G2/M (%): 4%
  S (%): 1%
[2]
  5-day Apoptosis (%): 11.60%
Porcine PGCs; MAC (0.7 pM) 1-4 days (FH), Table 4 timing study
  Normalized # of Colonies + SE: 1.21 ± 0.05
Porcine PGCs; MAC (0.7 pM) 5-8 days (LH), Table 4 timing study
  Normalized # of Colonies + SE: 1.23 ± 0.09
Porcine PGCs; [3]
  Normalized # of Colonies + SE: 2.00 ± 0.18
Porcine PGCs; Table 6 protease inhibitors: MAC 0.7 pM, PA 50 μM, AEBSF 250 μM, TLCK 100 μM, normalized to control
  Normalized # of Colonies + SE: 1.72 ± 0.15

— patent US6635802B1, “Nuclear transfer using cells cultured in serum starvation media containing apoptosis inhibitors” (The Texas A&M University System, priority 2000, dated 2003)
